Biological target: SARS-CoV-2 Spike RBD, His Tag (B.1.1.529/Omicron) (SARS-CoV-2, Omicron B.1.1.529 (BA.1) lineage) (UniProt P0DTC2)

Row | Substance | binding inhibition rate (%) at 2 μg/ml
1 | ADG2 (antibody) | < 30%
2 | AZD1061 (antibody) | < 30%
3 | AZD8895 (antibody) | < 30%
4 | LY_CoV16 (antibody) | < 30%
5 | LY_CoV555 (antibody) | < 30%
6 | REGN10933 (antibody) | < 30%
7 | REGN10987 (antibody) | < 30%
8 | S309 (antibody) | < 30%
